According to paper PMC10996255:

Molecular target: Recombinant human HER2 (human) (UniProt P04626)
Assay: ELISA; recombinant HER2 (50 ng/well) coated in PBS pH 7.4; scFv or conjugate 250 to 0.005 nM, 4-fold dilutions in 5% skim milk in PBST, room temperature; detected by rabbit anti-His-tag antibody and HRP-linked anti-rabbit IgG

EC50: 1.47 nM
Substance: 4D5scFv-G178-HSA (from UniProt P02768 25-609)
